B1: 6His-PAK1 (activated), PAK1 (1-545) (protein)
chain: MSNNGLDIQDKPPAPPMRNTSTMIGAGSKDAGTLNHGSKPLPPNPEEKKKKDRFYRSILPGDKTNKKKEKERPEISLPSDFEHTIHVGFDAVTGEFTGMPEQWARLLQTSNITKSEQKKNPQAVLDVLEFYNSKKTSNSQKYMSFTDKSAEDYNSSNALNVKAVSETPAVPPVSEDEDDDDDDATPPPVIAPRPEHTKSVYTRSVIEPLPVTPTRDVATSPISPTENNTTPPDALTRNTEKQKKKPKMSDEEILEKLRSIVSVGDPKKKYTRFEKIGQGASGTVYTAMDVATGQEVAIKQMNLQQQPKKELIINEILVMRENKNPNIVNYLDSYLVGDELWVVMEYLAGGSLTDVVTETCMDEGQIAAVCRECLQALEFLHSNQVIHRDIKSDNILLGMDGSVKLTDFGFCAQITPEQSKRSTMVGTPYWMAPEVVTRKAYGPKVDIWSLGIMAIEMIEGEPPYLNENPLRALYLIATNGTPELQNPEKLSAIFRDFLNRCLEMDVEKRGSAKELLQHQFLKIAKPLSSLTPLIAAAKEATKNNH
B2: 6His-PAK4cat, recombinant catalytic domain of PAK4 (286-591) (protein)
chain: PPGPRSPQREPQRVSHEQFRAALQLVVDPGDPRSYLDNFIKIGEGSTGIVCIATVRSSGKLVAVKKMDLRKQQRRELLFNEVVIMRDYQHENVVEMYNSYLVGDELWVVMEFLEGGALTDIVTHTRMNEEQIAAVCLAVLQALSVLHAQGVIHRDIKSDSILLTHDGRVKLSDFGFCAQVSKEVPRRKSLVGTPYWMAPELISRLPYGPEVDIWSLGIMVIEMVDGEPPYFNEPPLKAMKMIRDNLPPRLKNLHKVSPSLKGFLDRLLVRDPAQRATAAELLKHPFLAKAGPPASIVPLMRQNRTR

Key:
[1] = target: GST-iBox, recombinant 38 amino acid Inka box, Inka1 (166-203) [GST: P08515]
[2] = target: 13aa synthetic peptide of the PAK4 AID with Pro(0)Ser substitution
[3] = target: 13aa synthetic peptide of the Inka1 iBox-C with Pro(0)Ser substitution
[4] = target: 13aa synthetic peptide of the Inka1 iBox with Pro(0)Ser substitution

| Protein | kinase activity, phosphorylation of GST-Raf13 (in vitro kinase assay) [1] | phosphorylation of synthetic 13mer peptides in an array [2] | phosphorylation of synthetic 13mer peptides in an array [3] | phosphorylation of synthetic 13mer peptides in an array [4] |
| --- | --- | --- | --- | --- |
| B1 | does not affect PAK1 |  |  |  |
| B2 | is a potent of PAK4cat inhibitor in vitro | The AID-based peptide was phosphorylated as efficiently as Raf1 Ser338 | Inka1-derived sequences were significantly better substrates | Inka1-derived sequences were significantly better substrates |

— patent US10822723
